Test: soluble on expression in E. coli; label from the status in PepcDB or PDB records

Sequence	soluble on expression in E. coli
MGSDKIHHHHHHMYRVMFVDDEYMILEGLKWIIPWQELGFEIVKTARSAQEALAFLETESIDVLLTDITMPEMSGIELIEQAKKKGHQFISLILSGYQEFDYVKKGMALQVQDYLLKPVNKQELLANIQRIKIELDQQKKSHARVRLYLENGLMRWLNDEISEGEYEELMQQFATIKPGDFTVLLVEAEMSFLETIKELFMKKGQLLFIESWMSTYHQLLLIYKGARQEAFLFIREIEAILAGQGQIFVGESVNEWETVYESYEKVKQLQAIETFYQEFLPNNQKEQMNRSAEDFTFLAFNQALMIGDMQTIQRELDAIFNQLSQQHATPEYVRYVVFLLFSDISRQYPTVLEENYEKIVEEIRASNNLNTLYALMQQVLAEVKNKPKIKKYSESVSQAVERIEQGYLEELNLKTVADELHLNPSYLGQIFKKETKRSFSQYLNQVRTKHAQKLLLYTDDTINEISEKVGFNNTNYFSKMFKKLNGITPKEFREQYQSNYAGVEE	not soluble
MGSDKIHHHHHHNEKGGGTGSSSVGADTEPSVTGVHWTVDSVTVNGTTHQAPDGAHVEIAEDGRATGNYGCNSFHSTATFKGDRITLSRTLSTEMACEKRPMEFETTLARALAAGPLTAEAGQGKLTLTTAKGDRVHLTEEKDAPLYGTKWTVNSLIGGDVAQSLPAAADGKAWLTFTKKSESGDKKSGEKERGDKEVGTVSGSLGCNRVSAMATVRGSHITLGAPRTTRQMCSGSLMTTEKSLLKLFDSTVSYRIDHRAITLTSENGEGIGAIADR	not soluble
MGSDKIHHHHHHNKSEDKLSGDDFWAQGNETNAEAFLLSIYNSFRNATMSQRPFLTYSGDMRCAPITAYSTGDKYVAYLANNDMGELRNTYPDDARGGLIMQWDVFYTAIQDANILLAEIDKVPGMDELKRSRFKAEAIFMRSLSYFFIVRAFGDVPYYTNAYNEAPLPRTNMVIVLQNCLADLQPLLDDDPGAEVLPWSYSSYSSKGIRASRGSVIALMMHINLWLVQFDAQNKEQYYRNVVSLGEELERNNGAYSLLDINRSSVIFAGGSDEGLFEIAQNINFNEIFMMNAKFSDNVSYSCLNKSMPLFCYSGDYLMTLFPMYEDDARKELWFDEKIYSTSVSSSAPKEIKKFWNIDTYGNGTITSNSGNQIVFRYAGALLLYAEALAALGTNDTKACELLNRVRNRAHASEINTSGSELMDAIFWERCRELIGEGHYYYDLVRTGKVYNRNYCMNPMTRTNFNVGAWTWPIHRNALKNNTQIGLNLFWE	not soluble
MGSDKIHHHHHHQTAEPPKTVRPDQLAFRDLYKELVEINTTLSVGSCTAASEAMGARLKAAGFPEADVRVVVEPKHPREGNLVAVLRGTDATTKPMLLLAHIDVVEAKREDWTRDPFKLVEENGYFYGRGTSDDKAQAAIWVDSLIRLKQAGFKPKRDIKMALTCGEESEGYNGIEDLLKNHRPLVDAEFALNEGASGLLDEQGKAVMLEVQAGEKVYQDFTLTVTNPGGHSSRPVSPNAIYQLSAALDRIGAYQFPPRFNDATRGYFTQMQARVTPEQAAAMKTLVADVNDPAALALITKDRTWNSMLRTTCVATMVSAGHAPNALPQRATANINCRILPGTPIDEVKAKLTELAADPAVAVTLAHSSKPASPPPPLTPAIMAPIQKNAAKLWPGVPILPVMSTGATDAVHTSAAGIPTYGVTGLFHGPEGTGAHGLNERMRVKSLYEGRDFLHGLIQDYAGGK	not soluble
MGSDKIHHHHHHSCEKDPDLSKLDNNFTVYTNYDSKTNFNDFKTYCLPDSILLIGQGMKAEFWKDENAQEIIKQVADEMDTRGYTRVKVIKNANIGLQLSFTRQTTQIIGTGGWYGGGWYNGWWGPGYWGPYWNDWYYPYPVTYSYNTGTLIMEMVNLTDHPEDTSQKVKLPVIWHSYATGLLFENSKYNMQLTLDAVNQAFDQSPYIKKS	not soluble
MGSDKIHHHHHHSDDREMDDGRWKASALRVPLQVSSAVIKQEVVTRLAPDPVPLTEGAIGIFLSGTEPESGQEDSGYKVIDNRKYVYSEGHWGPPTANDTIYLVGNDADVCAYYPYKDSYTDKTVIPLQSQDYVETEDIYYALNTMINGFTPAITFDMVHAYSLVELKISRENYFMPCEISKITLKNSNLIKKGTINIAVDGSIHSSETGNYDLTTVTDASPHTLSVGESYVCRVLMIPVPLKIERTDAEGGEFGLSVSLVIDGQQMLVEIPYSELGEFRQGEKYVIGLKIKGTEIVPTVKALEWEDEEVNGGNKYPVE	not soluble
MGSDKIHHHHHHSEDINRNPLLPTKEDEKMDGVIYGAYLPNLEKSVIPIGTASESTEPVNRYQIGVNLAGDAWAGYMSPRDNKFNGSKNFTNYFMYENWVNYVYSFMVTDVYSPWMQIKRISQDEGTRNDEIYALAQIIKIAALHRTTDMFGPIPYSQVGKGSFKVAYDSQESVYRSFLKELEEAVQTLDDYSNKSKEVLPAFDIVYNGDVNKWMRFANSLMLRLAIRVRFADAGLAKEYAEKAVKHPAGLINSKELAAQMGKGAGLQMKNPLKVINEEYNDTRMGATIYSYLAGYNDARAAVYFVKNNGFKAVRCGIAKSGDAYNGFTRPNVHEDDPLYWMKASEVCFLKAEGALAGFDMGGSAGDFYNAGIRMSFSENGLDNSSAETYLKDSTRKPANYTDTSNGELSANAPSSITIRWENGATEEEKLERIITQKYLAIFPNGQEAWTEWRRTGYPRQIVVAENKTNSAVLIGNGYDLGGVRRLPYPRTEYEQNGENLHNAISQYLGGVDNAATKVWWDKKSK	not soluble
MGSDKIHHHHHHSSCGNDESDPDSTVTIAMATVEKQPQYDAPYLVLDNGEKLWVVQHIVPYRDLKAGERIFGNYSFLEAGESGFAYNIRLNDYTLVPVQKIIGLNPDNMDSIGNMKVQIKDMWPSDDYLNVRFMLNFPSPQKPILNLVVNEMIPWTKDGYAHLELRYNNNGSQGRLVPGMVSFKLDDYSPENSELKGIKVLVNPVDGEEKTYIFSYPLTGEDVPGFNPLDLAELK	not soluble
MGSDKIHHHHHHVASQTPGTEAQSQTVQPGRIAAISLHTSPLDQPGTGDAGGMNVYIVEVAKRLAERGIAVDIFTRATSFEQPPEVELAPGVTVRNIAAGPYGTLDKTALINYLCPFVHGMLRAEAEHLGGSYDLVHTHYWLSGQAGWPVAREWGVPLVHSMHTMARVKNMSLAEGDTPEPEERVRGEDALVALADRLIANTDDEAAQLINYYGASPSRVSTVFPGVDLTTFTPGSRAESLRRLGLPEDTILLLFVGRVQRLKAPDVLLRAAARLLELNPSLRDRLVVAVVGGQSGTGYREPWLLSDLADSLGIADLVRLEPPCPRAELVHYYRAATVTVVPSHSESFGLVAVESQACGTPVVAARVGGLPTAVRDGVSGVLIDGHDPHDYANVLHRMITEPRWRERMGAAGIHHASGLSWESTVDGLLAAYRDALHQCRLTVPCR	not soluble
MGSDKIHHHHHHVDIQQIRNATLVVNYANQVFLIDPFLGEKGSLPPFGETPNAVPNPLVDLPVDVSTLLDPDAIFVTHLHADHFDETAKEILPKQIPLYAQNQADAATIREAGFTNVSSFENGLALGDIRVYHTSGRHGVGEIGQRMGTVSGLVLTHPDEPTLYIAGDTIWCEEVETAIEQHAPDIIIVNSGAAQFLTGEPITMSQRDLLAVHQAAAEATIIVSHLESVNHCLLRRDMIADFLAAHHLSAHFLIPDDGETISF	not soluble
MGSDKIHHHHHHVGNLLVNLAMVLRQPTGISTYALSLLPYLRSLQPTLLSDRLYEGFDHQLISSRLCSDRGRRARLARLYWTQTQVPKLYRRLGSRLLFSPAPEAPIDRHCRSVVMVHDLRPLQLPSHSWQTYYFRWVVPKIVAQASHVLCNSEATATDLCHFYQLPAQKITPIYLGYDRQHYQPWSGKTSNYFLHIGQQFPHKNLERLIRAFAQLPTDYQLYLAGSRHASETPRLEQLVHSLGLRDRVQFLRYVDYADLPRLIGEAIALVYPSLWEGFGLPILEAMACGTPVITAHGSSLSEVGGEAVLYVDPYRIEAIAAAMRDLIDDSNLRQSLRDRGFQQASRFSWEATGKETCQVLEKFL	not soluble
MGSDKIHHHHHHVSEAIVFTSGKGGVGKTTVISNIGVELSQLDKKVIMLDTDMGLRNLDLVMGIEDKVNYNILDILNRSCRIRQAIIRNKKYPNLYVIPAAPSMDTLCSYEARFKILIEELKASFDYCLIDSPAGIDSGFWFSVSPADRAIVVTTPHVSAIHDARRCISLLDSAHLDDISVIVNAYDKHMVRRHQMISDNDITALLSTRIIGTIPYDKSVIICQNRGIPVREAKSRLSPVFARISGQIIHSSDDMRGAAV	not soluble
